Molecular target: T1, recombinant BMP4 (rBMP4) (mouse, UniProt P21275 293-408, limits assumed)
T1 sequence (looked up): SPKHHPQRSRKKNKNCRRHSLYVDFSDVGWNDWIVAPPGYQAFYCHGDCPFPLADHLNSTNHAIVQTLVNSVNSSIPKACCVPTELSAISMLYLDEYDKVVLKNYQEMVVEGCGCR
Assay: cell-based or functional assay

ERK1/2 phosphorylation in HUVECs: 5 fold
B1: mouse recombinant Olfml3-FLAG tagged protein (rOlfml3-FLAG) (other, not shown: small tags and cut ends)
chain: QQHHLVEYMERRLAALEERLAQCQDQSSRHAAELRDFKNKMLPLLEVAEKERETLRTEADSISGRVDRLEREVDYLETQNPALPCVELDEKVTGGPGAKGKGRRNEKYDMVTDCSYTVAQVRSMKILKRFGGSVGLWTKDPLGPAEKIYVLDGTQNDTAFVFPRLRDFTLAMAARKASRIRVPFPWVGTGQLVYGGFLYYARRPPGGPGGGGELENTLQLIKFHLANRTVVDSSVFPAESLIPPYGLTADTYIDLAADEEGLWAVYATRDDDRHLCLAKLDPQTLDTEQQWDTPCPRENAEAAFVICGTLYVVYNTRPASRARIQCSFDASGTLAPERAALSYFPRRYGAHASLRYNPRERQLYAWDDGYQIVYKLEMKKKEEEV
